Positions count from the first letter of the chain named. Read-outs that look alike come from different tables or passages of the source. Blank lines part the entries; values can stand above or below the binder they belong to.
How the values were obtained:
Test in all cases: SPR
[1] = target: T1, FcgRIIIa F (human, UniProt P08637)
[2] = target: T2, FcgRIIIa V (human, UniProt P08637)
[3] = target: T3, FcgRIIa H (human, UniProt P12318)
T3 chain: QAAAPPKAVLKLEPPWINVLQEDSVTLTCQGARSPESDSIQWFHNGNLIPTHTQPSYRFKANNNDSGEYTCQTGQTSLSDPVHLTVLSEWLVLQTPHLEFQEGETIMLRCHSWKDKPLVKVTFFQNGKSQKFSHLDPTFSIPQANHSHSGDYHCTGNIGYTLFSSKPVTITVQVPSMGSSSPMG

[4] = target: T4, FcgRIa (human, UniProt P12314)
T4 chain: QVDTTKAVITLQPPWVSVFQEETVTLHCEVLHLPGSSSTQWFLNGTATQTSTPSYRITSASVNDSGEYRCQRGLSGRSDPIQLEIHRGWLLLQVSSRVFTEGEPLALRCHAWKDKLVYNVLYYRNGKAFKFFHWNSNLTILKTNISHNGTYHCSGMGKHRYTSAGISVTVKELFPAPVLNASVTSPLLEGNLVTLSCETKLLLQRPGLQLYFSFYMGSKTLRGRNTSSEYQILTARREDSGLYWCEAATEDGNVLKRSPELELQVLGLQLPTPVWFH

[5] = target: T5, FcgRIIb (human, UniProt P31994)
T5 chain: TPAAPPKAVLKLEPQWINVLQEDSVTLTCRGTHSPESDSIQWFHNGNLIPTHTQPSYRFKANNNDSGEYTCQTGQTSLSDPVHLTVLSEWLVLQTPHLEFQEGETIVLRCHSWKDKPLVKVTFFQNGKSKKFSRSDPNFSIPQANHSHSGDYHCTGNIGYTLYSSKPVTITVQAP

[6] = target: T6, FcgRIIa R (human, UniProt P12318)
T6 chain: T3 chain with H134R

[7] = target: T5, FcgRIIb
[8] = target: T2, FcgRIIIa V; remark: listed apart in the source
[9] = target: T5, FcgRIIb
[10] = target: T1, FcgRIIIa F; remark: listed apart in the source
[11] = target: T6, FcgRIIa R
[12] = target: T4, FcgRIa
[13] = target: T6, FcgRIIa R
[14] = target: T4, FcgRIa
[15] = target: T2, FcgRIIIa V; remark: listed apart in the source
[16] = target: T3, FcgRIIa H
[17] = target: T1, FcgRIIIa F; remark: listed apart in the source
[18] = target: T3, FcgRIIa H
[19] = target: T5, FcgRIIb
[20] = target: T5, FcgRIIb
[21] = target: T1, FcgRIIIa F; remark: listed apart in the source

T1 sequence (P08637 17-208): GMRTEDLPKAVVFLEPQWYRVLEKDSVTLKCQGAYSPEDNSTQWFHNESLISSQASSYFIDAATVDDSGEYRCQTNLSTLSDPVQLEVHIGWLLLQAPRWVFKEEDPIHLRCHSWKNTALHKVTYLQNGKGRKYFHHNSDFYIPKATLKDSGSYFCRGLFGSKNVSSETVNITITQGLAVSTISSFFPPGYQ
T2 sequence (P08637 17-208 F176V): as the sequence (P08637 17-208) above, with F160V counted along it

Kd [1]: 24 nM | Kd [2]: 14 nM | Kd [3]: 38 nM | Kd [4]: 0.27 nM | Kd [5]: 380 nM | Kd [6]: 16 nM
B4: H240-Kn180/H240-Hl089/L73-k0 (antibody)
chain 1: QDQLVQSGAEVKKPGASVKVSCKASGFNIKDTYIQWVRQAPGQGLEWMGRIDPLRKQTKYREKFEGRVTITADTSTNTAYMELSSLRSEDTAVYYCVRSGREFDYWGQGTLVTVSSASTKGPSVFPLAPSSKSTSGGTAALGCLVKDYFPEPVTVSWNSGALTSGVHTFPAVLQSSGLYSLSSVVTVPSSSLGTQTYICNVNHKPSNTKVDKKVEPKSCDKTHTCPPCPAPEYYWGPMVFLFPPKPKDTLMISRTPEVTCVVVDVSDEDPEVKFNWYVDGVEVHNAKTKPRERQYNATYRVVSVLTVLHQDWLNGKEYKCKVSNKDLPAPIEKTISKAKGQPREPQVCTLPPSRDELTKNQVSLWCLVKGFYPSDIAVEWESNGQPENNYKTTPPVLDSDGSFFLYSKLTVDKSRWQQGNVFSCSVMHEALHNHYTQKSLSLSP
chain 2: QDQLVQSGAEVKKPGASVKVSCKASGFNIKDTYIQWVRQAPGQGLEWMGRIDPLRKQTKYREKFEGRVTITADTSTNTAYMELSSLRSEDTAVYYCVRSGREFDYWGQGTLVTVSSASTKGPSVFPLAPSSKSTSGGTAALGCLVKDYFPEPVTVSWNSGALTSGVHTFPAVLQSSGLYSLSSVVTVPSSSLGTQTYICNVNHKPSNTKVDKKVEPKSCDKTHTCPPCPAPELLTGPSVFLFPPKPKDTLMISRTPEVTCVVVDVSHEEPEVKFNWYVDGVEVHNAKTKPREEQYNSTYRVVSVLTVLHQDWLNGKEYKCKVSNDALPKPIEETISKAKGQPREPQVYTLPPSRCELTKNQVSLSCAVKGFYPSDIAVEWESNGQPENNYKTTPPVLDSDGSFFLVSKLTVDKSRWQQGNVFSCSVMHEALHNHYTQKSLSLSP
chain 3: DIQMTQSPSSLSASVGDRVTITCRASQDIHKYIAWYQQKPGQAPRLLIQYTSTLQPGVPSRFSGSGSGTDYTFTISSLQPEDIATYYCLQYEQLRTFGGGTKVEIKRTVAAPSVFIFPPSDEQLKSGTASVVCLLNNFYPREAKVQWKVDNALQSGNSQESVTEQDSKDSTYSLSSTLTLSKADYEKHKVYACEVTHQGLSSPVTKSFNRGEC

Kd [1]: 11 nM | Kd [2]: 1.8 nM | Kd [3]: 35 nM | Kd [4]: < 0.024 nM | Kd [5]: 290 nM | Kd [6]: 16 nM
B5: H240-Kn193/H240-Hl204/L73-k0 (antibody)
chain 1: B4 chain 1 with Y234N
chain 2: B4 chain 2 with I331E
chain 3: B4 chain 3

Kd [1]: 12 nM | Kd [2]: 2.2 nM | Kd [3]: 42 nM | Kd [4]: < 0.019 nM | Kd [5]: 290 nM | Kd [6]: 19 nM
B6: H240-Kn192/H240-Hl204/L73-k0 (antibody)
chain 1: B4 chain 1 with Y234N, R293K
chain 2: B4 chain 2 with I331E
chain 3: B4 chain 3

Kd [21]: 370 nM
B8: GpH7-A44/GpH7-B3/GpL16-k0 (antibody)
chain 1: QVQLVQSGAEVKKPGASVTVSCKASGYTFTDYEMHWIRQPPGEGLEWIGAIDPKTGDTAYSESFQDRVTLTADKSTSTAYMELSSLTSEDTAVYYCTRFYSYTYWGQGTLVTVSSASTKGPSVFPLAPSSKSTSGGTAALGCLVKDYFPEPVTVSWNSGALTSGVHTFPAVLQSSGLYSLSSVVTVPSSSLGTQTYICNVNHKPSNTKVDKKVEPKSCDKTHTCPPCPAPELLGGPSVFLFPPKPKDTLMISRTPEVTCVVVDVSHEDPEVKFNWYVDGVEVHNAKTKPREEQYNSTYRVVSVLTVLHQDWLNGKEYKCKVSNKALPAPEEKTISKAKGQPREPQVYTLPPSRKELTKNQVSLTCLVKGFYPSDIAVEWESNGQPENNYKTTPPVLDSDGSFFLYSKLTVDKSRWQQGNVFSCSVMHEALHNRYTQKSLSLSP
chain 2: not shown
chain 3: DIVMTQSPLSLPVTPGEPASISCQASESLVHSNRNTYLHWYLQKPGQSPQLLIYKVSNRFSGVPDRFSGSGSGTDFTLKISRVEAEDVGVYYCSQNTHVPPTFGQGTKVEIERTVAAPSVFIFPPSDEQLKSGTASVVCLLNNFYPREAKVQWKVDNALQSGNSQESVTEQDSKDSTYSLSSTLTLSKADYEKHKVYACEVTHQGLSSPVTKSFNRGEC

Kd [21]: 470 nM
B9: GpH7-A5/GpH7-B80/GpL16-k0 (antibody)
chain 1: not shown
chain 2: not shown
chain 3: B8 chain 3

Kd [21]: 230 nM
B10: GpH7-A44/GpH7-B80/GpL16-k0 (antibody)
chain 1: B8 chain 1
chain 2: not shown
chain 3: B8 chain 3

Continued, binder first:

B1: H240-Kn179/H240-Hl089/L73-k0 (antibody)
chain 1: B4 chain 1 with R293K
chain 2: B4 chain 2
chain 3: B4 chain 3
Kd [1]: 39 nM | Kd [2]: 18 nM | Kd [3]: 47 nM | Kd [4]: 0.46 nM | Kd [5]: 400 nM | Kd [6]: 18 nM

B2: H240-Kn033/H240-Hl033/L73-k0 (antibody)
chain 1: not shown
chain 2: not shown
chain 3: B4 chain 3
Kd [7]: 4200 nM | Kd [8]: 390 nM | Kd [9]: 4100 nM | Kd [10]: 290 nM | Kd [11]: 740 nM | Kd [12]: 0.095 nM | Kd [13]: 1000 nM | Kd [14]: 0.25 nM | Kd [15]: 48 nM | Kd [16]: 930 nM | Kd [17]: 2600 nM | Kd [18]: 520 nM | Kd [19]: 3300 nM

B3: H240-Kn032/H240-Hl032/L73-k0 (antibody)
chain 1: B4 chain 1 with Y233L, Y234L, W235G, M238D, D267H, R293E, A297S, D326A, A329L, I331E
chain 2: B4 chain 2 with T235G, S238D, E269D, D325K, K329L, I331E, E333K
chain 3: B4 chain 3
Kd [7]: 630 nM | Kd [8]: 3.1 nM | Kd [9]: 620 nM | Kd [13]: 340 nM | Kd [14]: 0.073 nM | Kd [16]: 690 nM | Kd [17]: 9.1 nM

B7: H240-G1d/L73-k0 (antibody)
chain 1: not shown
chain 2: B4 chain 3
Kd [8]: 310 nM | Kd [9]: 6000 nM | Kd [20]: 6100 nM | Kd [13]: 880 nM | Kd [14]: 0.23 nM | Kd [16]: 660 nM | Kd [17]: 1400 nM

— patent US10766960 (dated 2020)
